The text below walks through data of US7205275 (dated 2007).

T1: human Ang-2 (human, UniProt O15123)
T1 chain: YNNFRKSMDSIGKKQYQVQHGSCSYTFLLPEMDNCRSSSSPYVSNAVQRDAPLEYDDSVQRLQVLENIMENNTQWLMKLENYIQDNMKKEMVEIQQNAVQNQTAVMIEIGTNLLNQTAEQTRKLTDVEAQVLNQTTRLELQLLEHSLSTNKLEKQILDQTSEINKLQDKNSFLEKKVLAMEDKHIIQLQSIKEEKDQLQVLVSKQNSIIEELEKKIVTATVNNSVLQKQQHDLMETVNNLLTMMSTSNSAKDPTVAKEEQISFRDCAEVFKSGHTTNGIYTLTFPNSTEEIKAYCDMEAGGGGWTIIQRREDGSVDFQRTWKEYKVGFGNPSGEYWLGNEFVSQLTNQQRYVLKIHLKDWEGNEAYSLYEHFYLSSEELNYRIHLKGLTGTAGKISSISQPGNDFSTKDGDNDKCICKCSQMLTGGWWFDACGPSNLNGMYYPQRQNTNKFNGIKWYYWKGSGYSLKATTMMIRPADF

Primed or numbered codes have the meaning given here. Where no end group is shown, it is not given here. [ ]: non-standard residue; d: D form. Fc(3) = Fc: non-antigen-binding fragment of an antibody from proteolytic digestion of a whole antibody (vehicle); Fc(4) = non-antigen-binding fragment of an antibody (from proteolytic digestion of a whole antibody); Fc = immunoglobulin Fc domain fused to the peptide (peptibody); Fc(7) = Fc domain, peptide fused N- or C-terminal to it

In one experiment the target is T1, human Ang-2. Kind of experiment: competition ELISA vs Tie-2. (An ELISA detects its analyte on a solid surface through an enzyme-linked reagent.)
M[Fc(7)]GGGGGAQTKGKSVCQWDPWTCSHMQSGLE (not fully specified (bridges); cysteine pairing not given here) [Con4-21 (C)] showed an IC50 of 3.21 nM. On to M[Fc(4)]GGGGGAQLRHQEGCEWDPWTCEHMFDWLE (not fully specified; cysteine pairing not given here) [Con4-42 (C)], for which the 50% inhibitory concentration (IC50) amounted to 0.17 nM. Same read-out and setting: then M[Fc]GGGGGAQPRLQEECVWDPWTCEHMPLRLE (not fully specified; cysteine pairing not given here) [Con4-38 (C)], with 0.4 nM. On the same count and under the same terms, the result for M[Fc]GGGGGAQLPGQEDCEWDPWTCEHMVRSLE (not fully specified; cysteine pairing not given here) [Con4-37 (C)] reads 0.49 nM. M[Fc(7)]GGGGGAQRPEDMCSQWDPWTWHLQGYCLE (not fully specified (bridges); cysteine pairing not given here) [Con4-26 (C)]: the IC50 is > 1000 nM. Same read-out and setting: then M[Fc(7)]GGGGGAQTSQRVGCEWDPWTCQHLTYTLE (not fully specified (bridges); cysteine pairing not given here) [Con4-23 (C)], with 9.88 nM; and M[Fc(7)]GGGGGAQQVIGRPCEWDPWTCEHLEGLLE (not fully specified (bridges); cysteine pairing not given here) [Con4-20 (C)], with 0.48 nM. Same read-out and setting: the result for M[Fc(7)]GGGGGAQMFLPNECQWDPWTCSNLPEALE (not fully specified (bridges); cysteine pairing not given here) [Con4-14 (C)] reads > 1000 nM. With M[Fc]GGGGGAQPVNQEDCEWDPWTCEHMPPMLE (not fully specified; cysteine pairing not given here) [Con4-39 (C)], the IC50 was found to be 0.3 nM. Still for that read-out and setting: the result for M[Fc(4)]GGGGGAQQHWQEECEWDPWTCDHMPSKLE (not fully specified; cysteine pairing not given here) [Con4-46 (C)] reads 0.26 nM; that for M[Fc(4)]GGGGGAQWAQQEECAWDPWTCDHMVGLLE (not fully specified; cysteine pairing not given here) [Con4-45 (C)], 0.48 nM; that for M[Fc(7)]GGGGGAQNRLQEVCEWDPWTCEHMENVLE (not fully specified (bridges); cysteine pairing not given here) [Con4-31 (C)], 0.16 nM. Still for that read-out and setting: then M[Fc(7)]GGGGGAQGPRISTCQWDPWTCEHMDQLLE (not fully specified (bridges); cysteine pairing not given here) [Con4-17 (C)], with 0.96 nM; and M[Fc(7)]GGGGGAQGPAQEECEWDPWTCEPLPLMLE (not fully specified (bridges); cysteine pairing not given here) [Con4-30 (C)], with > 1000 nM; and M[Fc(7)]GGGGGAQFGWSHGCEWDPWTCRLLQGWLE (not fully specified (bridges); cysteine pairing not given here) [Con4-2 (C)], with > 1000 nM. The molecule M[Fc(4)]GGGGGAQHGQNMECEWDPWTCEHMFRYLE (not fully specified; cysteine pairing not given here) [Con4-50 (C)] registered a half-inhibitory concentration (IC50) of 0.38 nM. Consider M[Fc(7)]GGGGGAQTQGLHQCEWDPWTCKVLWPSLE (not fully specified (bridges); cysteine pairing not given here) [Con4-10 (C)], for which the IC50 stood at 86.6 nM. Regarding M[Fc(7)]GGGGGAQAVGSQTCEWDPWTCAHLVEVLE (not fully specified (bridges); cysteine pairing not given here) [Con4-16 (C)], the IC50 is 6.94 nM. Still for that read-out and setting: the result for M[Fc(4)]GGGGGAQSISHEECEWDPWTCEHMQVGLE (not fully specified; cysteine pairing not given here) [Con4-43 (C)] reads 0.18 nM. The molecule M[Fc(4)]GGGGGAQTTIGSMCEWDPWTCAHMQGGLE (not fully specified (bridges); cysteine pairing not given here) [Con4-C1 (C)] returned a half-inhibitory concentration (IC50) of 2.75 nM. M[Fc(4)]GGGGGAQGHSQEECGWDPWTCEHMGTSLE (not fully specified; cysteine pairing not given here) [Con4-48 (C)] had an IC50 of 0.26 nM. On the same count and under the same terms, then M[Fc(7)]GGGGGAQMGGAGRCEWDPWTCQLLQGWLE (not fully specified (bridges); cysteine pairing not given here) [Con4-13 (C)], with > 1000 nM. The same measure, in the same setting: then M[Fc(7)]GGGGGAQVLGGQGCEWDPWTCRLLQGWLE (not fully specified (bridges); cysteine pairing not given here) [AC4-Con4 (C)], with 1.54 nM.

Molecule M[Fc(7)]GGGGGAQDKILEECQWDPWTCQFFYGALE (not fully specified (bridges); cysteine pairing not given here) [Con4-3 (C)] yielded a concentration for half-maximal inhibition (IC50) of 282 nM.

Take M[Fc(4)]GGGGGAQTTIGSMCQWDPWTCAHMQGGLE (not fully specified (bridges); cysteine pairing not given here) [Con4-C2 (C)]: the IC50 turned out to be 3.75 nM. Same read-out and setting: then M[Fc(7)]GGGGGAQRAPQEDCEWDPWTCAHMDIKLE (not fully specified (bridges); cysteine pairing not given here) [Con4-25 (C)], with 0.31 nM; and M[Fc]GGGGGAQKSGQVECNWDPWTCEHMPRNLE (not fully specified; cysteine pairing not given here) [Con4-36 (C)], with 0.28 nM; and M[Fc(7)]GGGGGAQTWPQDKCEWDPWTCRLLQGWLE (not fully specified (bridges); cysteine pairing not given here) [AC1-Con4 (C)], with > 1000 nM. M[Fc(7)]GGGGGAQFGWSHGCEWDPWTCEHMGSTLE (not fully specified (bridges); cysteine pairing not given here) [AC2-Con4 (C)] showed an IC50 of 0.52 nM.

For another experiment, the target named is T1, human Ang-2. The experiment in a line: competition ELISA vs Tie-2. The source holds these as a separate data set.
MGAQQKFKPLDELEQTLYEQWTLQQRLEGGGGG-Fc [L1-C1 (N)] returned an IC50 of 0.56 nM.

Take MGAQVKFKPLDALEQTLYEHWMFQQALEGGGGG-Fc [L1-4 (N)]: the IC50 was found to be 0.08 nM. M[Fc(7)]GGGGGAQGFEYCDGMEDPFTFGCDKQTLE (not fully specified (bridges); cysteine pairing not given here) [12-9-1 (C)] yielded an IC50 of 1.84 nM. M[Fc(7)]GGGGGAQLQEWCEGVEDPFTFGCEKQRLE (not fully specified (bridges); cysteine pairing not given here) [12-9-3 (C)] came in with a 50% inhibitory concentration (IC50) of 0.81 nM.

The molecule MGAQVKYKPLDELDEWLYHQFTLHHQLEGGGGG[Fc(3)] [L1-17 (N)] gave a half-inhibitory concentration (IC50) of 0.08 nM. Still for that read-out and setting: the result for MGAQQKFQPLDELEETLYKQWTLQQRLEGGGGG[Fc(3)] [L1-16 (N)] reads 0.11 nM. MGAQEDYMPLDALDAQLYEQFILLHGLEGGGGG-{Fc(3)} [L1-20 (N)] yielded a 50% inhibitory concentration (IC50) of 0.09 nM.

As a reminder, the IC50 is the concentration needed to halve the response being measured. A low value points to greater potency.
